The target in assay [1] is Myosin11 (smooth muscle myosin heavy chain, myosin II isoform) (mouse (endogenous in retina)) (UniProt O08638). Put plainly: FRET or BRET. For orientation: Bioluminescence resonance energy transfer reports proximity on the nanometre scale.
The target is the same in assay [2].

Sequence of UniProt O08638 (O08638 whole entry, canonical isoform): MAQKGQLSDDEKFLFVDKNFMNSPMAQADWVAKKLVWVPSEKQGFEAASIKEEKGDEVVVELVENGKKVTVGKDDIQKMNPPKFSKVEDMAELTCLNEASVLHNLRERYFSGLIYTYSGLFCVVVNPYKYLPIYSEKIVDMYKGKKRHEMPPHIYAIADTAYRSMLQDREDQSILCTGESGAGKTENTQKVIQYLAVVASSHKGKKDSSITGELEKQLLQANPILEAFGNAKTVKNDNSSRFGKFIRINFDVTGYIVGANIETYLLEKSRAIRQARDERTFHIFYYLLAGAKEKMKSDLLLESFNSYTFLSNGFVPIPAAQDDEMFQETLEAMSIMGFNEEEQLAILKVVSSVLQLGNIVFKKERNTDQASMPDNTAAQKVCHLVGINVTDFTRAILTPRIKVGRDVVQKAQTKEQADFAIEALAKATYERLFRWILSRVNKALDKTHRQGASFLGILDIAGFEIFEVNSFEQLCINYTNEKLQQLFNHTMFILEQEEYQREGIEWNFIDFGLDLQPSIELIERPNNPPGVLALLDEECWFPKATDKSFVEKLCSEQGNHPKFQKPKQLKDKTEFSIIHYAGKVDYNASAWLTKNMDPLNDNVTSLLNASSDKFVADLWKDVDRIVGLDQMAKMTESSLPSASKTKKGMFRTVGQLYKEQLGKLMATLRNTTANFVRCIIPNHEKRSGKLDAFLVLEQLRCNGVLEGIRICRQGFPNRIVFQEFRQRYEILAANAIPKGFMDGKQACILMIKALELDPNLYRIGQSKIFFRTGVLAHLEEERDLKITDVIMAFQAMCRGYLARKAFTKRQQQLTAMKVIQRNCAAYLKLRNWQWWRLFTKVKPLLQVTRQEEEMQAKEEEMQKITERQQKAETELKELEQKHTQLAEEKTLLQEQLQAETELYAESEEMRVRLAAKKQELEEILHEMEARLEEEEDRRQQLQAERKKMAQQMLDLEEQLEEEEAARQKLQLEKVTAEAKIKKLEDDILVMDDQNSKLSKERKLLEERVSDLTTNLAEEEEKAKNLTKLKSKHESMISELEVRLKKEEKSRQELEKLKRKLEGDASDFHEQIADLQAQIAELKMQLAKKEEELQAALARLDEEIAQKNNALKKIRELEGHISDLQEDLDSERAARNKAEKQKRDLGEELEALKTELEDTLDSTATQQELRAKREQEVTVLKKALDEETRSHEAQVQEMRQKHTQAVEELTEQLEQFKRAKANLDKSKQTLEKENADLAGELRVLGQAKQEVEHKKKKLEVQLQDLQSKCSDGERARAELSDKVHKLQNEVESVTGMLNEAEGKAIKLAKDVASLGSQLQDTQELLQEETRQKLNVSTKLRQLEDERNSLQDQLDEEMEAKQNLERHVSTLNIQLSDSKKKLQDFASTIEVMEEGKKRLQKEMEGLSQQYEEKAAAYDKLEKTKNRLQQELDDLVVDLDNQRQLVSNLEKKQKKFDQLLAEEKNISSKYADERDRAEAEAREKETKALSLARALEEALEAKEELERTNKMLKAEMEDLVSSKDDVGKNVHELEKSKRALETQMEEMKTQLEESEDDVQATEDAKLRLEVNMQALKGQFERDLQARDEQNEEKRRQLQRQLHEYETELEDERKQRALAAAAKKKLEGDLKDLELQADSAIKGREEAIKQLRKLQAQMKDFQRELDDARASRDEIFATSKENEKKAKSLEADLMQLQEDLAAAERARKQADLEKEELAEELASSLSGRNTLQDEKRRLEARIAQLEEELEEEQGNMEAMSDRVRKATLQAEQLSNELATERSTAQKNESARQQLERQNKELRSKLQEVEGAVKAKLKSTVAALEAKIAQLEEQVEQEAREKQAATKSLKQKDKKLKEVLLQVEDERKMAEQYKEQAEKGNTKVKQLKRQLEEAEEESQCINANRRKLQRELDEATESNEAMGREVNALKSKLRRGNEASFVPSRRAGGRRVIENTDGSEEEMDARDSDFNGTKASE

Consider “α-smooth muscle actin (α-SMA) (from UniProt P62737 1-377) (natural protein)”, for which the FRET efficiency in assay [1] was over 0.8. In assay [2], this substance displayed a JNDR after noradrenaline, mesh pericytes (orders 3-4), blebbistatin vs. vehicle of 0.81.

Source of the values: article doi:10.64898/2025.12.01.691715.
